From paper PMC2824750

How the values were obtained:
[1] = biological target: in vitro translated 35S-labelled Ehmeth, full length (TNT-Ehmeth) (E. histolytica)
[2] = biological target: calmodulin, histidine, hemagglutin (CHH)-tagged-Ehmeth (E. histolytica); test: co-IP; anti-HA immunoprecipitation from nuclear lysate of E. histolytica trophozoites expressing a CHH-tagged protein, HNTG buffer (20 mM Hepes pH 7.5, 150 mM NaCl, 0.1% Triton, 10% glycerol), 4°C; blot with anti-enolase; trophozoites grown in regular medium or starved of glucose for 12 hours

Binder | inhibition of the tRNA^Asp methyltransferase activity of recombinant Ehmeth (0.4 nmol) by GST-Enolase (2 nmol) [1] [% inhibition] | fold more complex after glucose starvation than in regular medium [2] [fold]
GST-Ehenolase (enzyme) MSIQKVHAREILDSRGNPTIEVEITTGKGMFRSCVPSGASTGVHEAVELRDGDKKRYGGKGVLKAVENVNTIIGPALLGKNVLNQAELDEMMIKLDGTNNKGKLGANAILGCSMSICRAAAAEKGLPLYKYLAELTGHKEMTMPVPCFNVINGGAHAGNALAMQEFMICPTGATNFHEALRMAAETYQCLKVVIKAKYGQDATNVGDEGGFAPNVSGAREALDLLVEAIAKAGYTGKIEIAMDCAASEFYNEETKKYDLGKKIPADKKDPSLVKDVDGLIAEYVDYGKHYPIASIEDPFAEDDWAAWNKFTVEHGNFQIVGDDLLVTNPARVQMAMDKNACNSVLIKVNQIGTLTETFKTIKMAQEKGWGVMASHRSGETEDTFIADLVVGLNCKQIKTGAPCRSERLCKYNQLMRIEEELGNIPYAGKNWRNSTA | 60 | –
endogenous enolase of E. histolytica trophozoites (enzyme) MSIQKVHAREILDSRGNPTIEVEITTGKGMFRSCVPSGASTGVHEAVELRDGDKKRYGGKGVLKAVENVNTIIGPALLGKNVLNQAELDEMMIKLDGTNNKGKLGANAILGCSMSICRAAAAEKGLPLYKYLAELTGHKEMTMPVPCFNVINGGAHAGNALAMQEFMICPTGATNFHEALRMAAETYQCLKVVIKAKYGQDATNVGDEGGFAPNVSGAREALDLLVEAIAKAGYTGKIEIAMDCAASEFYNEETKKYDLGKKIPADKKDPSLVKDVDGLIAEYVDYGKHYPIASIEDPFAEDDWAAWNKFTVEHGNFQIVGDDLLVTNPARVQMAMDKNACNSVLIKVNQIGTLTETFKTIKMAQEKGWGVMASHRSGETEDTFIADLVVGLNCKQIKTGAPCRSERLCKYNQLMRIEEELGNIPYAGKNWRNSTA | – | 3
